Several values for one entry are separate records, joined by “and”; a condition that tells them apart may be missing. Equal values may be shown once.
How the values were obtained:
Type in all cases: binding
[1] = Probe fluorescence ratio response to arachidonic acid relative to ADIFAB2; details: arachidonic acid; response relative to ADIFAB2
Method in brief: (§1)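 Fluorescently labeled rat intestinal FABP variants were read at two emission wavelengths, near the unbound maximum (about 420 to 480 nm) and the FFA-bound maximum (about 495 to 580 nm). R = Fλ1/Fλ2 after subtracting probe-free intensity; ΔR = R+agent − R0, normalized to ADIFAB2 (rI-FABP-L72A).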

[2] = Probe fluorescence ratio response to oleic acid relative to ADIFAB2; details: response relative to ADIFAB2
Method in brief: as §1

[3] = Probe fluorescence ratio response to linolenic acid relative to ADIFAB2; details: response relative to ADIFAB2
Method in brief: as §1

[4] = Probe fluorescence ratio response to linoleic acid relative to ADIFAB2; details: response relative to ADIFAB2
Method in brief: as §1

[5] = Probe fluorescence ratio response to palmitic acid relative to ADIFAB2; details: response relative to ADIFAB2
Method in brief: as §1

Row | Molecule | DR/DR AA [1] | DR/DR OA [2] | DR/DR LNA [3] | DR/DR LA [4] | DR/DR PA [5]
1 | 126I, 72A (protein, listed as Rattus norvegicus, PEPTIDE (1)...(131) wild-type rat intestinal fatty acid binding protein) AFDGTWKVDRNENYEKFMEKMGINVVKRKLGAHDNLKLTITQEGNKFTVKESSNFRNIDVVFELGVDFAYSAADGTELTGTWTMEGNKLVGKFKRVDNGKELIAVREISGNELIQTYTYEGVEAKIIFKKE | 0.45 | 0.34 | 0.43 | 0.43 | 0.38
2 | 14A, 72A (protein, listed as Rattus norvegicus, PEPTIDE (1)...(131) wild-type rat intestinal fatty acid binding protein) AFDGTWKVDRNENAEKFMEKMGINVVKRKLGAHDNLKLTITQEGNKFTVKESSNFRNIDVVFELGVDFAYSAADGTELTGTWTMEGNKLVGKFKRVDNGKELIAVREISGNELIQTYTYEGVEAKRIFKKE | 0.53 | 0.36 | 0.56 | 0.56 | 0.24
3 | 14K, 72A (protein, listed as Rattus norvegicus, PEPTIDE (1)...(131) wild-type rat intestinal fatty acid binding protein) AFDGTWKVDRNENKEKFMEKMGINVVKRKLGAHDNLKLTITQEGNKFTVKESSNFRNIDVVFELGVDFAYSAADGTELTGTWTMEGNKLVGKFKRVDNGKELIAVREISGNELIQTYTYEGVEAKRIFKKE | 1.08 | 0.84 | 0.92 | 1.06 | 0.47
4 | 14I, 72A (protein, listed as Rattus norvegicus, PEPTIDE (1)...(131) wild-type rat intestinal fatty acid binding protein) AFDGTWKVDRNENIEKFMEKMGINVVKRKLGAHDNLKLTITQEGNKFTVKESSNFRNIDVVFELGVDFAYSAADGTELTGTWTMEGNKLVGKFKRVDNGKELIAVREISGNELIQTYTYEGVEAKRIFKKE | 0.57 and 0.572 | 0.57 and 0.572 | 0.90 and 0.899 | 0.79 and 0.792 | 0.59 and 0.586
5 | 126L, 72A (protein, listed as Rattus norvegicus, PEPTIDE (1)...(131) wild-type rat intestinal fatty acid binding protein) AFDGTWKVDRNENYEKFMEKMGINVVKRKLGAHDNLKLTITQEGNKFTVKESSNFRNIDVVFELGVDFAYSAADGTELTGTWTMEGNKLVGKFKRVDNGKELIAVREISGNELIQTYTYEGVEAKLIFKKE | 0.66 | 0.55 | 0.66 | 0.64 | 0.38
6 | 14H, 72A (protein, listed as Rattus norvegicus, PEPTIDE (1)...(131) wild-type rat intestinal fatty acid binding protein) AFDGTWKVDRNENHEKFMEKMGINVVKRKLGAHDNLKLTITQEGNKFTVKESSNFRNIDVVFELGVDFAYSAADGTELTGTWTMEGNKLVGKFKRVDNGKELIAVREISGNELIQTYTYEGVEAKRIFKKE | 0.37 | 0.25 | 0.42 | 0.45 | 0.17
7 | 14L, 72A (protein, listed as Rattus norvegicus, PEPTIDE (1)...(131) wild-type rat intestinal fatty acid binding protein) AFDGTWKVDRNENLEKFMEKMGINVVKRKLGAHDNLKLTITQEGNKFTVKESSNFRNIDVVFELGVDFAYSAADGTELTGTWTMEGNKLVGKFKRVDNGKELIAVREISGNELIQTYTYEGVEAKRIFKKE | 0.89 | 0.44 | 0.93 | 0.87 | 3.07
8 | 14E, 72A (protein, listed as Rattus norvegicus, PEPTIDE (1)...(131) wild-type rat intestinal fatty acid binding protein) AFDGTWKVDRNENEEKFMEKMGINVVKRKLGAHDNLKLTITQEGNKFTVKESSNFRNIDVVFELGVDFAYSAADGTELTGTWTMEGNKLVGKFKRVDNGKELIAVREISGNELIQTYTYEGVEAKRIFKKE | 0.51 | 0.41 | 0.61 | 0.56 | 0.44
9 | 14D, 72A (protein, listed as Rattus norvegicus, PEPTIDE (1)...(131) wild-type rat intestinal fatty acid binding protein) AFDGTWKVDRNENDEKFMEKMGINVVKRKLGAHDNLKLTITQEGNKFTVKESSNFRNIDVVFELGVDFAYSAADGTELTGTWTMEGNKLVGKFKRVDNGKELIAVREISGNELIQTYTYEGVEAKRIFKKE | 0.46 | 0.34 | 0.51 | 0.53 | 0.28
10 | 14G, 72A (protein, listed as Rattus norvegicus, PEPTIDE (1)...(131) wild-type rat intestinal fatty acid binding protein) AFDGTWKVDRNENGEKFMEKMGINVVKRKLGAHDNLKLTITQEGNKFTVKESSNFRNIDVVFELGVDFAYSAADGTELTGTWTMEGNKLVGKFKRVDNGKELIAVREISGNELIQTYTYEGVEAKRIFKKE | 0.43 | 0.24 | 0.46 | 0.42 | 0.19
11 | 14F, 72A (protein, listed as Rattus norvegicus, PEPTIDE (1)...(131) wild-type rat intestinal fatty acid binding protein) AFDGTWKVDRNENFEKFMEKMGINVVKRKLGAHDNLKLTITQEGNKFTVKESSNFRNIDVVFELGVDFAYSAADGTELTGTWTMEGNKLVGKFKRVDNGKELIAVREISGNELIQTYTYEGVEAKRIFKKE | 0.83 | 0.72 | 0.88 | 0.88 | 0.60
12 | 14M, 72A (protein, listed as Rattus norvegicus, PEPTIDE (1)...(131) wild-type rat intestinal fatty acid binding protein) AFDGTWKVDRNENMEKFMEKMGINVVKRKLGAHDNLKLTITQEGNKFTVKESSNFRNIDVVFELGVDFAYSAADGTELTGTWTMEGNKLVGKFKRVDNGKELIAVREISGNELIQTYTYEGVEAKRIFKKE | 0.62 and 0.619 | 0.41 and 0.412 | 0.68 and 0.684 | 0.68 and 0.685 | 0.45 and 0.452
13 | 102I, 72A (protein, listed as Rattus norvegicus, PEPTIDE (1)...(131) wild-type rat intestinal fatty acid binding protein) AFDGTWKVDRNENYEKFMEKMGINVVKRKLGAHDNLKLTITQEGNKFTVKESSNFRNIDVVFELGVDFAYSAADGTELTGTWTMEGNKLVGKFKRVDNGKEIIAVREISGNELIQTYTYEGVEAKRIFKKE | 1.46 and 1.461 | 1.93 and 1.929 | 1.76 and 1.763 | 1.90 and 1.902 | 1.17 and 1.169
14 | 126V, 72A (protein, listed as Rattus norvegicus, PEPTIDE (1)...(131) wild-type rat intestinal fatty acid binding protein) AFDGTWKVDRNENYEKFMEKMGINVVKRKLGAHDNLKLTITQEGNKFTVKESSNFRNIDVVFELGVDFAYSAADGTELTGTWTMEGNKLVGKFKRVDNGKELIAVREISGNELIQTYTYEGVEAKVIFKKE | 0.42 | 0.33 | 0.42 | 0.45 | 0.34
15 | 126M, 72A (protein, listed as Rattus norvegicus, PEPTIDE (1)...(131) wild-type rat intestinal fatty acid binding protein) AFDGTWKVDRNENYEKFMEKMGINVVKRKLGAHDNLKLTITQEGNKFTVKESSNFRNIDVVFELGVDFAYSAADGTELTGTWTMEGNKLVGKFKRVDNGKELIAVREISGNELIQTYTYEGVEAKMIFKKE | 0.32 | 0.24 | 0.28 | 0.31 | 0.29
